For test [1], the target named is T1, Human FcRn/FCGRT & B2M heterodimeric protein (human, UniProt P55899 24-297; P61769 21-119).
T1 construct: Bought heterodimer with His and Strep II tags
As to the kind of experiment: SPR (Biacore T200), FcRn captured, antibody in flow, pH 6.0; pH 6.0. (In general: In SPR one partner is held on a chip, and binding of the other changes the refractive index at the surface.)
From the text: (§1) The specific procedures were as follows: Each of FcγR and FcRn proteins (for information of each Fc receptor, see Table 2 below) containing a histidine tag was captured to the chip surface to which anti-histidine antibodies were coupled, and the binding and dissociation between the proteins on the chip surface and antibodies in the mobile phase were detected to obtain affinity and kinetic constants.
(§2) Affinity assay: Each cycle included capture of the receptor, binding of a certain concentration of the antibody carrying the Fc region mutation of the present application, and regeneration of the chip. […] In each cycle, the antibody mutant solution flowed over the chip surface at a flow rate of 30 μL/min, with the binding time of 60 s and the dissociation time of 60 s. […] The obtained data were analyzed using Biacore T200 analysis software (version number 3.1) and using an analysis 1:1 binding or homeostasis analysis model to obtain the corresponding results.

The target of test [2] is T2, Human FcγRIIIB/CD16B (NA1) (human, UniProt O75015 17-200, limits assumed).
T2 construct: Bought, his-tagged; not shown: his tag
As to the kind of experiment: SPR (Biacore T200).

In test [3] the target is T3, Human CD32A/FCGR2A protein (167Arg) (human, UniProt P12318 34-218, limits assumed).
T3 construct: Bought, his-tagged; also called CD32A (R167); CD32A R167; not shown: his tag
T3 sequence (looked up): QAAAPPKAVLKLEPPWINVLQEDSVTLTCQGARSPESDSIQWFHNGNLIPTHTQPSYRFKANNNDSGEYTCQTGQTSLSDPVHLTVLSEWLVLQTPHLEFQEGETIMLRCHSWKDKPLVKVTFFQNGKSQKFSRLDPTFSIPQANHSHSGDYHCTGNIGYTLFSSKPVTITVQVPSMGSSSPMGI
As to the kind of experiment: SPR (Biacore T200).

Test [4] deals with T4, Human CD32A/FCGR2A protein (167his) (human, UniProt P12318 34-218, limits assumed).
T4 construct: Bought, his-tagged; also called CD32A (H167); CD32A H167; not shown: his tag
T4 sequence (looked up): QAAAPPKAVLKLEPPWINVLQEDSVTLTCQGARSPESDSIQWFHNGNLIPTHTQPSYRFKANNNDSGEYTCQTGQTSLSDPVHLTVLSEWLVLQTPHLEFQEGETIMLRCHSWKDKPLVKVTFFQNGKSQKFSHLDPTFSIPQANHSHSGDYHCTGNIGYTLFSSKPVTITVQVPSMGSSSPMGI
As to the kind of experiment: SPR (Biacore T200).

In test [5] the target is T5, Human FcγRIIIB/CD16B (NA2) (human, UniProt O75015 17-200, limits assumed).
T5 construct: Bought, his-tagged; not shown: his tag
As to the kind of experiment: SPR (Biacore T200).

Test [6] has as its target T6, Human CD32B/FCGR2B protein (human, UniProt P31994 43-217, limits assumed).
T6 construct: Bought, his-tagged; also called FcγRIIb; not shown: his tag
T6 sequence (looked up): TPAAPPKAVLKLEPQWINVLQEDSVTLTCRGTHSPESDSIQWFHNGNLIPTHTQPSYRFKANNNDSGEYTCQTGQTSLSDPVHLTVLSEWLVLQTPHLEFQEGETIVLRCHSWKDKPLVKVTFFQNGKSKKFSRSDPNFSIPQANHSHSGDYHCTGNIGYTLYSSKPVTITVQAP
As to the kind of experiment: SPR (Biacore T200).

In test [7] the target is T7, Human FcγRIIIA/CD16A (V176) protein (human, UniProt P08637 17-208).
T7 construct: Bought, his-tagged; not shown: his tag
As to the kind of experiment: SPR (Biacore T200).

In test [8] the target is T8, Human FcγRIIIA/CD16A (F176) protein (human, UniProt P08637 17-208).
T8 construct: Bought, his-tagged; not shown: his tag
As to the kind of experiment: SPR (Biacore T200).

The target in test [9] is T9, Claudin18.2 (cp0007, Genscript) (UniProt P56856-2 1-261, limits assumed).
T9 construct: Bought antigen used in BLI; also called Claudin18.2 antigen; the antigen
T9 sequence (looked up): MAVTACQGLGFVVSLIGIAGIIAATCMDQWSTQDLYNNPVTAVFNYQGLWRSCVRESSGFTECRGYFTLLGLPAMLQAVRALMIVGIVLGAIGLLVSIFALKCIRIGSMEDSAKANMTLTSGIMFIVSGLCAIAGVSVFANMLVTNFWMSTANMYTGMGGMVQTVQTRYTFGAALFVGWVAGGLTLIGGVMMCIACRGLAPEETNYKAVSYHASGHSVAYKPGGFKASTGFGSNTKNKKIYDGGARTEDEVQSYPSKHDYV
As to the kind of experiment: BLI (Octet), antibody on AHC sensor, Claudin18.2 100 nM.
Method: The antibody and Claudin18.2 (cp0007, Genscript) were diluted to 100 nM, respectively.
Detection was conducted using Fortebio Octet Red96e, and the sensors were arranged according to the positions of the samples. […] After the experiment was completed, KD values were analyzed using ForteBio Octet analysis software.

Test [10] concerns the target T10, Human CD64/FCGR1A protein (human, UniProt P12314 16-288, limits assumed).
T10 construct: Bought, his-tagged; also called FcγRI; not shown: his tag
As to the kind of experiment: SPR (Biacore T200), his-tagged CD64 captured on anti-His CM5 chip, antibody as analyte, pH 7.4, 1:1 binding fit.

In test [11] the target is T11, human C1q (human, UniProt P02745 23-245; P02746 28-253; P02747 29-245).
T11 construct: Bought C1q (Complement Technology); also called C1q antigen
As to the kind of experiment: BLI (Octet), biotinylated antibody on SA sensor.
Method: (§3) The antibody was diluted to approximately 100 nM, and C1q (Δ099, Complement Technology) was diluted to 40 nM.
(§4) Detection was conducted using Fortebio Octet Red96e, and the sensors were arranged according to the positions of the samples. […] After the experiment was completed, KD values were analyzed using ForteBio Octet analysis software, the coordinate axis data were derived, and Graphpad Prism 8 software was used for plotting.

The target in test [12] is T10, Human CD64/FCGR1A protein. As to the kind of experiment: SPR (Biacore T200).
From the text: as §1, §2
The target in test [13] is T11, human C1q. As to the kind of experiment: BLI (Octet), biotinylated antibody on SA sensor, C1q 40 nM. A general note: In BLI a coated tip is dipped into the sample, and binding shifts an interference pattern.
Method: as §3, §4
The target in test [14] is T10, Human CD64/FCGR1A protein. As to the kind of experiment: SPR (Biacore T200), his-tagged receptor captured, antibody in flow.
From the text: as §1, §2
In test [15] the target is T10, Human CD64/FCGR1A protein. As to the kind of experiment: SPR (Biacore T200). The source holds these as a separate data set.
From the text: as §1, §2

T2 sequence (O75015 other isoform, or with tags, fused parts or gaps limits assumed): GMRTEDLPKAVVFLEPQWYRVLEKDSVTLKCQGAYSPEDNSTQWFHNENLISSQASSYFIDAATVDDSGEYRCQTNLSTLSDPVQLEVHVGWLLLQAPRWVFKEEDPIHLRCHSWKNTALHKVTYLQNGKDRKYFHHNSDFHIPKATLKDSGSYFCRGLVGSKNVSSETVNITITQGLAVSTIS
T1 sequence (P55899 24-297 limits assumed, chain 1 of 2): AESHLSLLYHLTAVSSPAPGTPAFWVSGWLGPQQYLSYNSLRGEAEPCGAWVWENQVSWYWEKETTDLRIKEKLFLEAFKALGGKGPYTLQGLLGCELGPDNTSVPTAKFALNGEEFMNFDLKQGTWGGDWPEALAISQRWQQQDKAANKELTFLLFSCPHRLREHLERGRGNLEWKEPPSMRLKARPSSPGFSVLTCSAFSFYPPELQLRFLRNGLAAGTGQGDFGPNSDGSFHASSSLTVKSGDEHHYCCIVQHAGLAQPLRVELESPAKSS
T1 sequence (P61769 21-119 limits assumed, chain 2 of 2): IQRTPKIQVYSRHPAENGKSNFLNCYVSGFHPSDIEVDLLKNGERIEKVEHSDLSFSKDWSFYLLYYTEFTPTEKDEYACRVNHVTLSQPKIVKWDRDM
T7 sequence (P08637 17-208 F176V limits assumed): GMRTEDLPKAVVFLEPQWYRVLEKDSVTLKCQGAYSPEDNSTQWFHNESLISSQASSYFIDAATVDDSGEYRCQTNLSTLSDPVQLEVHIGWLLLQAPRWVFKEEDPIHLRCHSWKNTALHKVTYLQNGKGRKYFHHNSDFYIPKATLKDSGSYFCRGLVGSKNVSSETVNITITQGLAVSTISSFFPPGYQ
T10 sequence (P12314 16-288 limits assumed): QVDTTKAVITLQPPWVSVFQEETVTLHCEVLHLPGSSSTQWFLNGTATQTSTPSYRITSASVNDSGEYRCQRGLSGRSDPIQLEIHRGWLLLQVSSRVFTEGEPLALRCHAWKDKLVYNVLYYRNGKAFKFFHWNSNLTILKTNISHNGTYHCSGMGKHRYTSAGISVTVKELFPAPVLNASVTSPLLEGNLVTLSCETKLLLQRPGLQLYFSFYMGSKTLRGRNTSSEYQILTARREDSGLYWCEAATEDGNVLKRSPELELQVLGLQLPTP
T11 sequence (P02745 23-245 limits assumed, chain 1 of 3): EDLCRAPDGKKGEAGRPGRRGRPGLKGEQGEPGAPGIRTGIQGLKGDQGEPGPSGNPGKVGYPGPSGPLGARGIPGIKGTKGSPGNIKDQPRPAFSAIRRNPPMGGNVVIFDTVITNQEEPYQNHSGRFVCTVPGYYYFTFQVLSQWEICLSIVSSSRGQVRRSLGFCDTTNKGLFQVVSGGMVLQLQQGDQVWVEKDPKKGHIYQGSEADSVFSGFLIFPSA
T11 sequence (P02746 28-253 limits assumed, chain 2 of 3): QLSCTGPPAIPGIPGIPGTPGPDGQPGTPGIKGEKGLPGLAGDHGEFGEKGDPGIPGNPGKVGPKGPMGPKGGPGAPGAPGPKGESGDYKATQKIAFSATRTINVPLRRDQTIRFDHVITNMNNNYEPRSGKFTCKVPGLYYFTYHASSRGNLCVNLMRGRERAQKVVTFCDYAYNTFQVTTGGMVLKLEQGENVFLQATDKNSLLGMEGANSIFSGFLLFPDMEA
T11 sequence (P02747 29-245 limits assumed, chain 3 of 3): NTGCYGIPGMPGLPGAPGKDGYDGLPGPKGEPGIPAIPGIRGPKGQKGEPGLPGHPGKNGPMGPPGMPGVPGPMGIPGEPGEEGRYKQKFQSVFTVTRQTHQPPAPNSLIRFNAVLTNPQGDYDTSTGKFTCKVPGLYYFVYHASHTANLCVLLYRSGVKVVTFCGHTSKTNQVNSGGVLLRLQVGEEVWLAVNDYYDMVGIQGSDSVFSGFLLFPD
T8 sequence (P08637 17-208 limits assumed): as the sequence (P08637 17-208 F176V limits assumed) above, with V160F counted along it
T5 sequence (O75015 17-200 N65S limits assumed): as the sequence (O75015 other isoform, or with tags, fused parts or gaps limits assumed) above, with R20S, N49S, D66N, V90I counted along it

B1: Fcmut-03 (antibody, human IgG1, kappa)
heavy: QVQLVQSGAEVKKPGSSVKVSCKASGYSFSSYNIHWVRQAPGQGLEWMGYIAPFQGDSRYNQKFKGRVTITADKSTSTAYMELSSLRSEDTAVYYCARLNRGNSLDYWGQGTLVTVSSASTKGPSVFPLAPSSKSTSGGTAALGCLVKDYFPEPVTVSWNSGALTSGVHTFPAVLQSSGLYSLSSVVTVPSSSLGTQTYICNVNHKPSNTKVDKKVEPKSCDKTHTCPPCPAPELLGGPSVFLFPPKPKDTLMISRTPEVTCVVVDVSHEDPEVKFNWYVDGVEVHNAKTKPREEQYNSTYRVVSVLTVLHQDWLNGKEYKCKVSNKALGPIEKTISKAKGQPREPQVYTLPPSREEMTKNQVSLTCLVKGFYPSDIAVEWESNGQPENNYKTTPPVLDSDGSFFLYSKLTVDKSRWQQGNVFSCSVMHEALHNHYTQKSLSLSPGK
light: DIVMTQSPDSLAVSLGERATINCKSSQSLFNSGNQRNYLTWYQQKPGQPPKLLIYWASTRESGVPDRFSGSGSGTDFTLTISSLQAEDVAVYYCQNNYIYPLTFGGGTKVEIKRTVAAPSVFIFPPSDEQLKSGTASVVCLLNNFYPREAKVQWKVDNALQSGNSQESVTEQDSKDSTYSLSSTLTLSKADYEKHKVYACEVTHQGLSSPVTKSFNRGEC
notes: IgG1-mut of Fcmut-01: deletion of 329, G at 330 (EU index)
For orientation: Kd means the free concentration of one partner at which half of the binding sites on the other are occupied at equilibrium, for simple one-to-one binding. As a reminder, the koff is the first-order rate constant of dissociation. Read a low koff as a long-lived complex. A word on the kon: it is the rate constant with which the complex forms. As for B1, the equilibrium dissociation constant (Kd) was found to be 317 nM in test [1], 2.9 nM in test [9] and 13.8 nM in test [14]. In addition, the binding result in test [2], in test [3], in test [4], in test [5], in [6] and in test [7] was “no binding (tested: 400 nM)” in each case. For the same molecule, the binding result in test [8] is listed as “no binding (tested: 400 nM)”; with human C1q [11] it was “no binding (tested: C1q 40 nM)”. In addition, the Response was found to be 0.15 nm in test [9] and 0.0016 nm with human C1q [13]. The results for the koff in test [9] and in test [10] were 0.0002 s⁻¹ and 0.0377 s⁻¹, respectively. Moreover, the kon in [9] turned out to be 69000 M⁻¹ s⁻¹; in [10] it was 2.74e+06 M⁻¹ s⁻¹. Besides, the “fold reduction of binding against Fcmut-01” value in test [12] stood at 12.9 times.

B2: Fcmut-07 (antibody, human IgG1, kappa, L234A L235A)
heavy: QVQLVQSGAEVKKPGSSVKVSCKASGYSFSSYNIHWVRQAPGQGLEWMGYIAPFQGDSRYNQKFKGRVTITADKSTSTAYMELSSLRSEDTAVYYCARLNRGNSLDYWGQGTLVTVSSASTKGPSVFPLAPSSKSTSGGTAALGCLVKDYFPEPVTVSWNSGALTSGVHTFPAVLQSSGLYSLSSVVTVPSSSLGTQTYICNVNHKPSNTKVDKKVEPKSCDKTHTCPPCPAPEAAGGPSVFLFPPKPKDTLMISRTPEVTCVVVDVSHEDPEVKFNWYVDGVEVHNAKTKPREEQYNSTYRVVSVLTVLHQDWLNGKEYKCKVSNKALGPIEKTISKAKGQPREPQVYTLPPSREEMTKNQVSLTCLVKGFYPSDIAVEWESNGQPENNYKTTPPVLDSDGSFFLYSKLTVDKSRWQQGNVFSCSVMHEALHNHYTQKSLSLSPGK
light: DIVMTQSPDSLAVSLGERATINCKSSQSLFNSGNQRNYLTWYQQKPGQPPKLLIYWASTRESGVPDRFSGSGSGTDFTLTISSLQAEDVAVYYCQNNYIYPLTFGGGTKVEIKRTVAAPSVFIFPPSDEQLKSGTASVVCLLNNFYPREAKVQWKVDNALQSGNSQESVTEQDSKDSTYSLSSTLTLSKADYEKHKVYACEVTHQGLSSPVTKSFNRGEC
notes: IgG1-mut of Fcmut-01: L234A + L235A + deletion of 329 + G at 330 (EU index)
With B2, the Kd came out at 374 nM in test [1] and 2.47 nM in test [9]. In addition, the binding result in test [2], in test [3], in [4], in [5], in test [6] and in test [7] was “no binding (tested: 400 nM)” throughout. Also, the binding result in [15] and in [8] was “no binding (tested: 400 nM)” in each case. The figures for the Response (in test [9]; with human C1q [13]) were 0.154 nm and -0.0134 nm, respectively. The koff in [9] was 0.0002 s⁻¹. Besides, in test [9], the kon was 80900 M⁻¹ s⁻¹.

B3: Fcmut-06 (antibody, human IgG1, kappa, L234A L235A)
heavy: QVQLVQSGAEVKKPGSSVKVSCKASGYSFSSYNIHWVRQAPGQGLEWMGYIAPFQGDSRYNQKFKGRVTITADKSTSTAYMELSSLRSEDTAVYYCARLNRGNSLDYWGQGTLVTVSSASTKGPSVFPLAPSSKSTSGGTAALGCLVKDYFPEPVTVSWNSGALTSGVHTFPAVLQSSGLYSLSSVVTVPSSSLGTQTYICNVNHKPSNTKVDKKVEPKSCDKTHTCPPCPAPEAAGGPSVFLFPPKPKDTLMISRTPEVTCVVVDVSHEDPEVKFNWYVDGVEVHNAKTKPREEQYNSTYRVVSVLTVLHQDWLNGKEYKCKVSNKALAPIEKTISKAKGQPREPQVYTLPPSREEMTKNQVSLTCLVKGFYPSDIAVEWESNGQPENNYKTTPPVLDSDGSFFLYSKLTVDKSRWQQGNVFSCSVMHEALHNHYTQKSLSLSPGK
light: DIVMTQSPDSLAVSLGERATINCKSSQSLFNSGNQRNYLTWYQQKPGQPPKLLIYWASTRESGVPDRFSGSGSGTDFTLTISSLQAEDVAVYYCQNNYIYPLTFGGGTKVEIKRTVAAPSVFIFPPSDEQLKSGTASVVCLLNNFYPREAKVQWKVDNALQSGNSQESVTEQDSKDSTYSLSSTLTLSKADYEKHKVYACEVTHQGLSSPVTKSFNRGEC
notes: IgG1-mut of Fcmut-01: L234A + L235A + deletion of 329 (EU index)
Turning to B3, the values for the Kd in test [1] and in test [9] were 284 nM and 2.44 nM, respectively. Further, the binding result in test [2], in test [3], in test [4], in [5], in test [6] and in test [7] was “no binding (tested: 400 nM)” throughout. The binding result in test [15] and in test [8] was “no binding (tested: 400 nM)” in each case. Besides, the figures for the Response (in [9]; with human C1q [13]) were 0.144 nm and -0.0035 nm, respectively. For the same molecule, the koff in test [9] was 0.0002 s⁻¹. This molecule gave a kon in test [9] of 81900 M⁻¹ s⁻¹.

B4: Fcmut-08 (antibody, human IgG1, kappa, L234A L235A)
heavy: QVQLVQSGAEVKKPGSSVKVSCKASGYSFSSYNIHWVRQAPGQGLEWMGYIAPFQGDSRYNQKFKGRVTITADKSTSTAYMELSSLRSEDTAVYYCARLNRGNSLDYWGQGTLVTVSSASTKGPSVFPLAPSSKSTSGGTAALGCLVKDYFPEPVTVSWNSGALTSGVHTFPAVLQSSGLYSLSSVVTVPSSSLGTQTYICNVNHKPSNTKVDKKVEPKSCDKTHTCPPCPAPEAAGGPSVFLFPPKPKDTLMISRTPEVTCVVVDVSHEDPEVKFNWYVDGVEVHNAKTKPREEQYNSTYRVVSVLTVLHQDWLNGKEYKCKVSNKALPIEKTISKAKGQPREPQVYTLPPSREEMTKNQVSLTCLVKGFYPSDIAVEWESNGQPENNYKTTPPVLDSDGSFFLYSKLTVDKSRWQQGNVFSCSVMHEALHNHYTQKSLSLSPGK
light: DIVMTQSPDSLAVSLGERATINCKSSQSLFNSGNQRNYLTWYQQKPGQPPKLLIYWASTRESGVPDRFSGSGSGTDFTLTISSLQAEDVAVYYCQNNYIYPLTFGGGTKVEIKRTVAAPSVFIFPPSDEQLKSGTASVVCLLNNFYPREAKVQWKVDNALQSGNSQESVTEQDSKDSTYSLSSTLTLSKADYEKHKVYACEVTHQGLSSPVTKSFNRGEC
notes: IgG1-mut of Fcmut-01: L234A + L235A + deletion of 329 and 330 (EU index); also called Fcmut-8
For the molecule B4, the Kd in test [1] came to 402 nM; in test [9], 2.41 nM. Besides, the binding result in test [2], in [3], in test [4], in test [5], in [6] and in [7] was “no binding (tested: 400 nM)” each time. Further, the figures for the binding result (in [15]; in [8]; with human C1q [11]) were “no binding (tested: 400 nM)”, “no binding (tested: 400 nM)” and “no binding (tested: C1q 40 nM)”, respectively. Further, the Response in test [9] is 0.152 nm; in the test with human C1q [13], 0.0004 nm. In test [9], this molecule had a koff of 0.0002 s⁻¹. Moreover, in test [9], the association rate constant (kon) amounted to 82900 M⁻¹ s⁻¹.
